These are literature values, as cited in paper PMC4310935.

This data set addresses GLP-1 receptor (Mus musculus) (UniProt O35659).
Sequence of UniProt O35659 (O35659 22-463): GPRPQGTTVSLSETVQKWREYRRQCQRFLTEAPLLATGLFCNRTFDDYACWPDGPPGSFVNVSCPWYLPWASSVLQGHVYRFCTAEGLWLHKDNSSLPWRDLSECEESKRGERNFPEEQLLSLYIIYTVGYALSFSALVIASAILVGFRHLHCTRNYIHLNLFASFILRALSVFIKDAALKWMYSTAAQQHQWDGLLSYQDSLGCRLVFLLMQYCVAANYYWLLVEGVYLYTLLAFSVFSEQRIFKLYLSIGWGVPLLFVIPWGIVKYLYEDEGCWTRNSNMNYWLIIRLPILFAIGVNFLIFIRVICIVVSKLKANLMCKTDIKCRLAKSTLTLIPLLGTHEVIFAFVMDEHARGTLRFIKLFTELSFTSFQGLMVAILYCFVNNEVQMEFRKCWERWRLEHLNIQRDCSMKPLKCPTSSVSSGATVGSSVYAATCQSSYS

Sequence of GLP-1 (P55095 98-127): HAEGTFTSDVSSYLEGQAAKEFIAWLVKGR

For the substance GLP-1 (from UniProt P55095), the Kd is 500 pM.

In general, Kd refers to the free concentration of one partner at which half of the binding sites on the other are occupied at equilibrium, for simple one-to-one binding.
